Source: patent US8460910B2 (Illumina Cambridge Limited, priority 2003, dated 2013)

B1: YAS: 9° N polymerase mutant, motif A region YAS, also A485L; SEQ ID NO: 20 (protein)
chain: MILDTDYITENGKPVIRVFKKENGEFKIEYDRTFEPYFYALLKDDSAIEDVKKVTAKRHGTVVKVKRAEKVQKKFLGRPIEVWKLYFNHPQDVPAIRDRIRAHPAVVDIYEYDIPFAKRYLIDKGLIPMEGDEELTMLAFAIATLYHEGEEFGTGPILMISYADGSEARVITWKKIDLPYVDVVSTEKEMIKRFLRVVREKDPDVLITYNGDNFDFAYLKKRCEELGIKFTLGRDGSEPKIQRMGDRFAVEVKGRIHFDLYPVIRRTINLPTYTLEAVYEAVFGKPKEKVYAEEIAQAWESGEGLERVARYSMEDAKVTYELGREFFPMEAQLSRLIGQSLWDVSRSSTGNLVEWFLLRKAYKRNELAPNKPDERELARRRGGYAGGYVKEPERGLWDNIVYLDFRSYASSIIITHNVSPDTLNREGCKEYDVAPEVGHKFCKDFPGFIPSLLGDLLEERQKIKRKMKATVDPLEKKLLDYRQRLIKILANSFYGYYGYAKARWYCKECAESVTAWGREYIEMVIRELEEKFGFKVLYADTDGLHATIPGADAETVKKKAKEFLKYINPKLPGLLELEYEGFYVRGFFVTKKKYAVIDEEGKITTRGLEIVRRDWSEIAKETQARVLEAILKHGDVEEAVRIVKEVTEKLSKYEVPPEKLVIHEQITRDLRDYKATGPHVAVAKRLAARGVKIRPGTVISYIVLKGSGRIGDRAIPADEFDPTKHRYDAEYYIENQVLPAVERILKAFGYRKEDLRYQKTKQVGLGAWLKVKGKK
modifications: 9oN polymerase variant (exo-) with L408Y/Y409A/P410S mutations
B2: 9° N DM: 9° N (-exo) Y409V/A485L double mutant control polymerase; SEQ ID NO: 15 (protein)
chain: MILDTDYITENGKPVIRVFKKENGEFKIEYDRTFEPYFYALLKDDSAIEDVKKVTAKRHGTVVKVKRAEKVQKKFLGRPIEVWKLYFNHPQDVPAIRDRIRAHPAVVDIYEYDIPFAKRYLIDKGLIPMEGDEELTMLAFAIATLYHEGEEFGTGPILMISYADGSEARVITWKKIDLPYVDVVSTEKEMIKRFLRVVREKDPDVLITYNGDNFDFAYLKKRCEELGIKFTLGRDGSEPKIQRMGDRFAVEVKGRIHFDLYPVIRRTINLPTYTLEAVYEAVFGKPKEKVYAEEIAQAWESGEGLERVARYSMEDAKVTYELGREFFPMEAQLSRLIGQSLWDVSRSSTGNLVEWFLLRKAYKRNELAPNKPDERELARRRGGYAGGYVKEPERGLWDNIVYLDFRSLVPSIIITHNVSPDTLNREGCKEYDVAPEVGHKFCKDFPGFIPSLLGDLLEERQKIKRKMKATVDPLEKKLLDYRQRLIKILANSFYGYYGYAKARWYCKECAESVTAWGREYIEMVIRELEEKFGFKVLYADTDGLHATIPGADAETVKKKAKEFLKYINPKLPGLLELEYEGFYVRGFFVTKKKYAVIDEEGKITTRGLEIVRRDWSEIAKETQARVLEAILKHGDVEEAVRIVKEVTEKLSKYEVPPEKLVIHEQITRDLRDYKATGPHVAVAKRLAARGVKIRPGTVISYIVLKGSGRIGDRAIPADEFDPTKHRYDAEYYIENQVLPAVERILKAFGYRKEDLRYQKTKQVGLGAWLKVKGKK
modifications: 9oN polymerase (exo-) with Y409V and A485L mutations
B3: FAP: 9° N DM-derived polymerase with amino acids 408-410 FAP (protein, UniProt Q56366 1-775, looked up, variant D141A E143A L408F Y409A A485L)
DNA polymerase: MILDTDYITENGKPVIRVFKKENGEFKIEYDRTFEPYFYALLKDDSAIEDVKKVTAKRHGTVVKVKRAEKVQKKFLGRPIEVWKLYFNHPQDVPAIRDRIRAHPAVVDIYEYDIPFAKRYLIDKGLIPMEGDEELTMLAFAIATLYHEGEEFGTGPILMISYADGSEARVITWKKIDLPYVDVVSTEKEMIKRFLRVVREKDPDVLITYNGDNFDFAYLKKRCEELGIKFTLGRDGSEPKIQRMGDRFAVEVKGRIHFDLYPVIRRTINLPTYTLEAVYEAVFGKPKEKVYAEEIAQAWESGEGLERVARYSMEDAKVTYELGREFFPMEAQLSRLIGQSLWDVSRSSTGNLVEWFLLRKAYKRNELAPNKPDERELARRRGGYAGGYVKEPERGLWDNIVYLDFRSFAPSIIITHNVSPDTLNREGCKEYDVAPEVGHKFCKDFPGFIPSLLGDLLEERQKIKRKMKATVDPLEKKLLDYRQRLIKILANSFYGYYGYAKARWYCKECAESVTAWGREYIEMVIRELEEKFGFKVLYADTDGLHATIPGADAETVKKKAKEFLKYINPKLPGLLELEYEGFYVRGFFVTKKKYAVIDEEGKITTRGLEIVRRDWSEIAKETQARVLEAILKHGDVEEAVRIVKEVTEKLSKYEVPPEKLVIHEQITRDLRDYKATGPHVAVAKRLAARGVKIRPGTVISYIVLKGSGRIGDRAIPADEFDPTKHRYDAEYYIENQVLPAVERILKAFGYRKEDLRYQKTKQVGLGAWLKVKGKK
B4: CAA: 9° N DM-derived polymerase with amino acids 408-410 CAA (protein, UniProt Q56366 1-775, looked up, variant D141A E143A L408C Y409A P410A A485L)
DNA polymerase: MILDTDYITENGKPVIRVFKKENGEFKIEYDRTFEPYFYALLKDDSAIEDVKKVTAKRHGTVVKVKRAEKVQKKFLGRPIEVWKLYFNHPQDVPAIRDRIRAHPAVVDIYEYDIPFAKRYLIDKGLIPMEGDEELTMLAFAIATLYHEGEEFGTGPILMISYADGSEARVITWKKIDLPYVDVVSTEKEMIKRFLRVVREKDPDVLITYNGDNFDFAYLKKRCEELGIKFTLGRDGSEPKIQRMGDRFAVEVKGRIHFDLYPVIRRTINLPTYTLEAVYEAVFGKPKEKVYAEEIAQAWESGEGLERVARYSMEDAKVTYELGREFFPMEAQLSRLIGQSLWDVSRSSTGNLVEWFLLRKAYKRNELAPNKPDERELARRRGGYAGGYVKEPERGLWDNIVYLDFRSCAASIIITHNVSPDTLNREGCKEYDVAPEVGHKFCKDFPGFIPSLLGDLLEERQKIKRKMKATVDPLEKKLLDYRQRLIKILANSFYGYYGYAKARWYCKECAESVTAWGREYIEMVIRELEEKFGFKVLYADTDGLHATIPGADAETVKKKAKEFLKYINPKLPGLLELEYEGFYVRGFFVTKKKYAVIDEEGKITTRGLEIVRRDWSEIAKETQARVLEAILKHGDVEEAVRIVKEVTEKLSKYEVPPEKLVIHEQITRDLRDYKATGPHVAVAKRLAARGVKIRPGTVISYIVLKGSGRIGDRAIPADEFDPTKHRYDAEYYIENQVLPAVERILKAFGYRKEDLRYQKTKQVGLGAWLKVKGKK

System: 3′ modified nucleotide
Assay: Gel-based incorporation assay of Example 2, two cycles of enzymology on bead-bound 32P-labelled DNA template
Format: biochemical
Method: The mutant polymerases were assessed for their ability to incorporate a 3′ blocked nucleotide analogue using a gel-based assay as described in generic form in Example 1. The rates of incorporation of the modified nucleotides were compared to purified forms of related DNA polymerases in both a single round of incorporation and through two rounds of nucleotide incorporation. The DNA template that was used for these experiments was a commercially-synthesised biotinylated oligonucleotide.
The method for two cycles of incorporation involves the binding of the DNA primer-template to streptavidin-coated beads (Dynalbeads). These are prepared as follows: • Resuspend beads in storage pot by pipetting up and down Take 20 μL beads • Wash 3×200 μL TE buffer (10 mM Tris HCl pH 7.5, 1 mM EDTA) Add 50 μL B&W buffer (5 mM Tris HCl, pH 7.5; 1M NaCl, […]) • 25 μL H2O • 25 μL of ^32P-labelled biotin DNA template (final concentration of 100 nM)
The first cycle of enzymatic incorporation is performed on these beads as follows:
Incorporation mix 1 is added to the bead pellet from above.
Reactions are incubated at 45° C. for 15 minutes
The first cycle of enzymology is then deblocked by treatment with tri(carboxyethyl) phosphine (TCEP) as follows:
Add 65 μL TCEP (100 mM) in water and incubate at 65° C. for 15 minutes
After removal of the TE buffer, a second cycle of enzymatic incorporation is then performed by the addition of incorporation mix 2, as follows:
Take 5 μL samples out at ½, 1, 2, 4, 10, 30, 60 mins and add to gel loading buffer with EDTA.
Heat all samples to 95° C. for 10 mins and load 3 μl on a 12% acrylamide gel (Sambrook and Russell, 2001).
Time (mins) to 50% product conversion on second cycle of enzymology at 45° C., 50 mM Tris, pH 8, 4 mM MgSO4, 0.05 (v/v) Tween, 50 μg/ml enzyme, and 2 μM 3′ modified nucleotide. Time to 50% product conversion on first cycle of incorporation shown in parentheses. For other mutants the time to 50% conversion on the first cycle was not measured in these experiments

[1] = 45° C., 50 mM Tris, pH 8, 4 mM MgSO4, 0.05 (v/v) Tween, 50 μg/ml enzyme, 2 μM 3′ modified nucleotide

| Molecule | Time (mins) to 50% product conversion on second cycle of enzymology [1] | incorporation of 3′ modified nucleotide analogues compared to 9° N DM (Y409V/A485L) (region A variants, conditions of Example 2) | Time to 50% product conversion on first cycle of incorporation (45° C., 50 mM Tris, pH 8, 4 mM MgSO4, 0.05 (v/v) Tween, 50 μg/ml enzyme, 2 μM 3′ modified nucleotide, first cycle (in parentheses)) |
| --- | --- | --- | --- |
| B1 | 1.5 min | best incorporation rate | – |
| B2 | no product conversion under these | – | no product conversion under these |
| B3 | 5.5 min | – | – |
| B4 | 15 min | – | – |
